# B1: Ephrin type-A receptor 2 (Mus musculus), Q03145 (parent)
# chain: MELRAVGFCLALLWGCALAAAAAQGKEVVLLDFAAMKGELGWLTHPYGKGWDLMQNIMDDMPIYMYSVCNVVSGDQDNWLRTNWVYREEAERIFIELKFTVRDCNSFPGGASSCKETFNLYYAESDVDYGTNFQKRQFTKIDTIAPDEITVSSDFEARNVKLNVEERMVGPLTRKGFYLAFQDIGACVALLSVRVYYKKCPEMLQSLARFPETIAVAVSDTQPLATVAGTCVDHAVVPYGGEGPLMHCTVDGEWLVPIGQCLCQEGYEKVEDACRACSPGFFKSEASESPCLECPEHTLPSTEGATSCQCEEGYFRAPEDPLSMSCTRPPSAPNYLTAIGMGAKVELRWTAPKDTGGRQDIVYSVTCEQCWPESGECGPCEASVRYSEPPHALTRTSVTVSDLEPHMNYTFAVEARNGVSGLVTSRSFRTASVSINQTEPPKVRLEDRSTTSLSVTWSIPVSQQSRVWKYEVTYRKKGDANSYNVRRTEGFSVTLDDLAPDTTYLVQVQALTQEGQGAGSKVHEFQTLSTEGSANMAVIGGVAVGVVLLLVLAGVGLFIHRRRRNLRARQSSEDVRFSKSEQLKPLKTYVDPHTYEDPNQAVLKFTTEIHPSCVARQKVIGAGEFGEVYKGTLKASSGKKEIPVAIKTLKAGYTEKQRVDFLSEASIMGQFSHHNIIRLEGVVSKYKPMMIITEYMENGALDKFLREKDGEFSVLQLVGMLRGIASGMKYLANMNYVHRDLAARNILVNSNLVCKVSDFGLSRVLEDDPEATYTTSGGKIPIRWTAPEAISYRKFTSASDVWSYGIVMWEVMTYGERPYWELSNHEVMKAINDGFRLPTPMDCPSAIYQLMMQCWQQERSRRPKFADIVSILDKLIRAPDSLKTLADFDPRVSIRLPSTSGSEGVPFRTVSEWLESIKMQQYTEHFMVAGYTAIEKVVQMSNEDIKRIGVRLPGHQKRIAYSLLGLKDQVNTVGIPI
# Variants of: B1
# Conditions: with epha4_mouse Epha4, Q03137
# Chain of epha4_mouse Epha4, Q03137 (Q03137 whole entry): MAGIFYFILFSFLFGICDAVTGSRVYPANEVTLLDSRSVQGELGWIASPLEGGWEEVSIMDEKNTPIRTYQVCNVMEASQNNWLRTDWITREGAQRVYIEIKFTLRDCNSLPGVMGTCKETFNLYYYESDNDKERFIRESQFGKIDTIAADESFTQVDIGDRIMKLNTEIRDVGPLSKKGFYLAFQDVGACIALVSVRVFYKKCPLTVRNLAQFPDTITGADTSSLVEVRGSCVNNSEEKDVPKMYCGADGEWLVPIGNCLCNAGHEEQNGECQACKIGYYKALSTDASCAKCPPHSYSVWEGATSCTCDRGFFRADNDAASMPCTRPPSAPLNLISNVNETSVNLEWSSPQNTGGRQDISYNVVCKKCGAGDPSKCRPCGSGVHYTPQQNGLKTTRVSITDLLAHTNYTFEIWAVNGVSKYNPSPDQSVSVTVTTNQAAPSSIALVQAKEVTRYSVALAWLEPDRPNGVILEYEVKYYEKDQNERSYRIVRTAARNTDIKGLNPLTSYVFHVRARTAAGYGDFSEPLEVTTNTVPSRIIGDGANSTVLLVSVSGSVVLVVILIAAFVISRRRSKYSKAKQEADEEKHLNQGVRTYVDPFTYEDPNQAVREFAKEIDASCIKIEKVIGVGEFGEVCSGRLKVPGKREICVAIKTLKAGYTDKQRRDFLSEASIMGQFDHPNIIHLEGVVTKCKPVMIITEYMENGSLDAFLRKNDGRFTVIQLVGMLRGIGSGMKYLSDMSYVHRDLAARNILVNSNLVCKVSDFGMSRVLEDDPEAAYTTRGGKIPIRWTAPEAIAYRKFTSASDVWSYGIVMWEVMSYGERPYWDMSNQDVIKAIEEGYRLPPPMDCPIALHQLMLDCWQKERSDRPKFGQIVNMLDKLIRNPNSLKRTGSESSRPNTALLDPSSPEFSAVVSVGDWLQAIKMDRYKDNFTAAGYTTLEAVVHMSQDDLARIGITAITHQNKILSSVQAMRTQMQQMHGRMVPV
row,effect of a mutation on the interaction,Variant
1,disrupting interaction,Y595F

# Variants of: B1
# Conditions: with epha4_mouse Epha4, Q03137
# Remark: another data set of the same source
row,effect of a mutation on the interaction,Variant
1,disrupting interaction,Y589F

# — IntAct's records for PubMed 16977320
